From patent publication US20180021429A1, “ANTICANCER AGENTS OR ANTIMETASTATIC AGENTS USING FSTL1 AND COMBINATION DRUG THEREOF” (PHARMA FOODS INTERNATIONAL CO., LTD., priority 2015, published 2018)
Entries after “also recorded” stand apart in the source; their conditions may differ.

Columns and labels:
FSTL1 [1] = target: T1, FSTL1 (Homo sapiens, UniProt Q12841); test: Inhibition of induction of MSCs, cancer-associated MSCs and M-MDSCs by FSTL1 in mouse bone marrow cells (Examples 13 to 15); type: cell-based; parameters: purchased R&D Systems, Inc. 1694-FN-050
T1 sequence (Q12841 21-308): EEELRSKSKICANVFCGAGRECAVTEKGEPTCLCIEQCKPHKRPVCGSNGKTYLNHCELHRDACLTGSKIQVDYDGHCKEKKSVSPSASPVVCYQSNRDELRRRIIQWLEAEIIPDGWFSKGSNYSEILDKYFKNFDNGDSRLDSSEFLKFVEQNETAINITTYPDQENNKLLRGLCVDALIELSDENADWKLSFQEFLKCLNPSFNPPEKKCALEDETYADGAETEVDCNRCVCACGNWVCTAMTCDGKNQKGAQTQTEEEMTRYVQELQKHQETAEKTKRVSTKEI
Procedure: The antibody clone (#6-55, #7, […], #13, or #22) was evaluated for its activity by the same testing method as in Example 13. #6-55 was set as a positive control for activity. […] Mouse bone marrow cells were supplemented with FSTL1 and the predetermined concentration of each antibody and cultured for 8 days. 5×10^4 cells/well were separated from each culture system and evaluated for the ability to differentiate into adipocytes using an adipocyte differentiation reagent included in “Mesenchymal Stem Cell Functional Identification Kit (R&D Systems, Inc., Cat. No. SCO10)”. For the evaluation method, the cells were supplemented with the adipocyte differentiation reagent and cultured for 8 days. Then, adipocytes per culture system were counted under a microscope for evaluation. In the graph, none is depicted in the leftmost bar, and the control antibody is depicted in the second bar from the left followed by the anti-FSLT1 antibody clones. Adipocytes were not confirmed for any of the anti-FSLT1 antibodies. It is understood that the differentiation induction of MSCs serving as the original source is inhibited.
Mouse bone marrow cells (bone marrow cells prepared in the same way as in Example 4) were supplemented with 20 ng/mL (final concentration) of FSTL1 and 20.0, 10.0, 5.0, or 2.5 μg/ml (final concentration) of the rat anti-FSTL1 antibody or #6-55. Also, mouse bone marrow cells were supplemented with 20.0 μg/ml (final concentration) each of their respective control antibodies, a rat IgG2b isotype control (R&D Systems, Inc., Cat. No. MAB0061, clone 141945) and an anti-DNP antibody. The cells were cultured for 8 days, and the inhibitory activity of each antibody against the induction of MSCs, cancer-associated MSCs, and M-MDSCs by FSTL1 was evaluated in the same way as in Example 13 (FIG. 40A). […] The inhibition of regulatory T cells shown in Patent Literature 1 (WO2009/028411) is presumably a consequence mediated by the inhibition of MSC induction. […]

FSTL1 [2] = target: T1, FSTL1; test: Affinity of mouse chimeric antibodies, Biacore T-200 (Example 33); type: binding
Procedure: The mouse chimeric antibodies were immobilized onto Sensor Chip CM5 (GE Healthcare Japan Corp., BR-1005-30) using Mouse Antibody Capture Kit (GE Healthcare Japan Corp., BR-1008-38), and their affinity for human FSTL1 was calculated using Biacore T-200 (GE Healthcare Japan Corp.).
First, the exhaustive activity comparison of the obtained antibodies was conducted with the human FSTL1 concentration fixed to 10 μg/ml (Table 33-1, FIG. 28).
Next, the KD values of clone #6-55, #7-34, and #13 presumed to have high affinity in FIG. 28 were calculated with the antigen concentration adjusted to 0 to 20 μg/ml (Table 35-2).

[3] = Example 14, #6-55 as positive control

Row | Molecule | inhibitory activity against the induction of MSCs, cancer-associated MSCs, and M-MDSCs by FSTL1 (FSTL1 [1]; Example 15, FSTL1 20 ng/mL, antibody 20.0, 10.0, 5.0, or 2.5 μg/ml, dose dependence not confirmed) | affinity in surface plasmon resonance assay (FSTL1 [2]) | inhibitory activity against the induction of MSCs, cancer-associated MSCs, and M-MDSCs by FSTL1 (FSTL1 [1]; [3])
1 | #6-55: chicken-mouse chimeric anti-FSTL1 antibody clone; variable regions SEQ ID NO: 783 (light), 785 (heavy) (antibody, V domains shown, mouse constant regions) VH: AVTLDESGGGLQTPGGALSLVCKGSGFTFTSVTMQWVRQAPGKGLEWVASVCSGSSTYYAPAVKGRATISRDNGQSTVRLQLSNLRPEDTGTYYCAKIAGRARWSCTSAAYNIDAWGHGTEVIVSS VL: ASTQPSSVSAIPGETVKITCSGGGNNYGWYQQRSPGSAPVTVIYYNDNRPSNIPSRFSGSTSGSTSTLTITGVQADDEAIYYCGSWDSNTDSGIFGAGTTLTVL | at the same level; also recorded: slightly superior | strong affinity | 
2 | #33: chicken-mouse chimeric anti-FSTL1 antibody clone; variable regions SEQ ID NO: 823 (light), 825 (heavy) (antibody, V domains shown, mouse constant regions) VH: AVTLDESGGGLQTPGGGLSLVCKASGFTFSSFNMNWVRQAPGKGLEYVAEISGTGSSTYYGSAVKGRATISRDNGQSTVRLQLNNLRAEDTATYFCARGDGAYSIDAWGHGTEVIVSS VL: ASTQPSSVSANPGETVEITCSGDSSYYGWFQQKSPGSAPVTVIYDNTNRPSDIPSRFSGSKSGSTATLTITGVRAEDEAVYYCGGYDSSTYDGIFGAGTTLTVL |  | strong affinity | inhibitory activity equivalent to or higher than that of the positive control
3 | #13: chicken-mouse chimeric anti-FSTL1 antibody clone; variable regions SEQ ID NO: 815 (light), 817 (heavy) (antibody, V domains shown, mouse constant regions) VH: AVTLDESGGGLQTPGGGLSLVCKASGFTFSSVTMQWVRQAPGKGLEWVASICSGSSTYYGPAVKGRATISRDNGQNTVRLQLNNLRAEDTATYYCAKIVGRGRWSCTSAAYNIDAWGHGTEVIVSS VL: ASTQPSSVSANPGETVKITCSGGGNNYGWYQQKSPGSAPVTVIYNNNNRPSNIPSRFSGSKSGSTNTLTITGVQAEDEAVYYCGSYDSSSDSGIFGAGTTLTVL |  | strong affinity | inhibitory activity equivalent to or higher than that of the positive control
